Target: CST (FLAG-Ctc1, Stn1, HA-Ten1) purified from HEK293T/17 cells (human) (UniProt Q2NKJ3)
Test: co-IP

Question: For “Polα/primase (endogenous), P09884 1-1462; Q14181 1-598; P49642 1-420; P49643 1-509”, which stoichiometry of Polα/primase to CST is on record?
Answer: 20%

Reference: publication PMC11246235
